The results in this text go back to article PMC7477632, “Aptamer-based surface-enhanced resonance Raman scattering assay on a paper fluidic platform for detection of cardiac troponin I”.

The target of series [1] is T1, cardiac troponin I (cTnI) (UniProt P19429 2-210). Description: sandwich SERRS lateral-flow assay; capture aptamer on test line; N2 on AuNP as detector; assay LOD 0.016 ng/ml; running buffer PBS with 0.25% Tween; sample pad pretreated with 0.05 M Tris pH 7.6, 0.15 M NaCl, 0.25% Triton X-100; assay temperature not stated. Conditions: protein: commercial.
Series [2] addresses T1, cardiac troponin I (cTnI). The series is described as follows: sandwich SERRS lateral-flow assay; detector aptamer on AuNP; N1 on test line as capture; assay LOD 0.016 ng/ml; running buffer PBS with 0.25% Tween; sample pad pretreated with 0.05 M Tris pH 7.6, 0.15 M NaCl, 0.25% Triton X-100; assay temperature not stated. Conditions: protein: commercial.

T1 sequence (P19429 2-210): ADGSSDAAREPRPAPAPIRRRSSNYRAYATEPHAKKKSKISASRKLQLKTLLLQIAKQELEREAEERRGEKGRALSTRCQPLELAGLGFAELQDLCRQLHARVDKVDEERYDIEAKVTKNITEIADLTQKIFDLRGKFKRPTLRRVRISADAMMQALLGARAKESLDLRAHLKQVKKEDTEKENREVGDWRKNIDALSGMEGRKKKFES

Consider TTTTTTCGTGCAGTACGCCAACCTTTCTCATGCGCTGCCCCTCTTA (ssDNA, 5'-biotin) [primary cTnI aptamer], for which the binding result in series [1] is “binds”. As to CGCATGCCAAACGTTGCCTCATAGTTCCCTCCCCGTGTCC (ssDNA, 5'-amine-spacer 18-spacer 18) [secondary cTnI aptamer], in series [2], the binding result is on record as “binds”.
